According to publication PMC12247212 (RSC Chemical Biology, 2025):

How the values were obtained:
β2-microglobulin [1] = molecular target: T1, β2-microglobulin (Homo sapiens (assumed), UniProt P61769); assay: BLI; SpyBLI single-cycle kinetics, Octet-K2; SpyTagged nanobody or scFv loaded from crude mammalian cell supernatant (1:1 with PBS + 0.05% Tween-20) onto biotinylated SpyCatcher003 S49C on streptavidin sensors; purified antigen as analyte at five increasing concentrations; 30 °C, 1000 rpm, PBS pH 7.5, 0.05% Tween-20; 1:1 standard model (1:1 partial dissociation model for Nb24); averages of three independent …; conditions: one partner purified
T1 construct: β2-microglobulin, recombinant; MW ~12 kDa

β2-microglobulin [2] = molecular target: T1, β2-microglobulin; assay: BLI; SpyBLI single-cycle kinetics, Octet-K2; purified SpyTagged nanobody or scFv loaded at 100 nM onto biotinylated SpyCatcher003 S49C on streptavidin sensors; purified antigen as analyte at five increasing concentrations; 30 °C, 1000 rpm, PBS pH 7.5, 0.05% Tween-20; 1:1 standard model (1:1 partial dissociation model for Nb24); averages of three independent experiments; conditions: both partners purified
β2-microglobulin [3] = molecular target: T1, β2-microglobulin; assay: BLI; SpyBLI single-cycle kinetics, Octet-K2; SpyTagged nanobody or scFv loaded from cell-free reaction blend (diluted 100-fold in PBS + 0.05% Tween-20) onto biotinylated SpyCatcher003 S49C on streptavidin sensors; purified antigen as analyte at five increasing concentrations; 30 °C, 1000 rpm, PBS pH 7.5, 0.05% Tween-20; 1:1 standard model (1:1 partial dissociation model for Nb24); averages of three independent …; conditions: one partner purified
hen egg-white lysozyme = molecular target: T2, hen egg-white lysozyme (Gallus gallus, UniProt P00698); assay: as above; conditions: one partner purified
T2 construct: lysozyme from chicken egg-white, Sigma-Aldrich 62971; also called Lysozyme from chicken egg-white; source: bought: Sigma-Aldrich (62971); further purified by SEC (Superdex 75 Increase)

CD16a-mMBP [4] = molecular target: T3, CD16a-mMBP (Homo sapiens, allotype  …, UniProt P08637); assay: BLI; SpyBLI single-cycle kinetics, Octet-K2; SpyTagged nanobody or scFv loaded from crude mammalian cell supernatant (1:1 with PBS + 0.05% Tween-20) onto biotinylated SpyCatcher003 S49C on streptavidin sensors; purified antigen as analyte at five increasing concentrations; 30 °C, 1000 rpm, PBS pH 7.5, 0.05% Tween-20; 1:1 standard model (1:1 partial dissociation model for Nb24); averages of three independent …; conditions: one partner purified
T3 construct: monovalent antigen; MW ~63 kDa; also called CD16a (FCGR3A); FcγRIIIa; source: Expi293F, transfected (pcDNA3.4 without SpyTag003), harvested 6 days post-transfection, purified

CD16a-mMBP [5] = molecular target: T3, CD16a-mMBP; assay: BLI; SpyBLI single-cycle kinetics, Octet-K2; purified SpyTagged nanobody or scFv loaded at 100 nM onto biotinylated SpyCatcher003 S49C on streptavidin sensors; purified antigen as analyte at five increasing concentrations; 30 °C, 1000 rpm, PBS pH 7.5, 0.05% Tween-20; 1:1 standard model (1:1 partial dissociation model for Nb24); averages of three independent experiments; conditions: both partners purified
CD16a-mMBP [6] = molecular target: T3, CD16a-mMBP; assay: BLI; SpyBLI single-cycle kinetics, Octet-K2; SpyTagged nanobody or scFv loaded from cell-free reaction blend (diluted 100-fold in PBS + 0.05% Tween-20) onto biotinylated SpyCatcher003 S49C on streptavidin sensors; purified antigen as analyte at five increasing concentrations; 30 °C, 1000 rpm, PBS pH 7.5, 0.05% Tween-20; 1:1 standard model (1:1 partial dissociation model for Nb24); averages of three independent …; conditions: one partner purified

T2 sequence (P00698 19-147): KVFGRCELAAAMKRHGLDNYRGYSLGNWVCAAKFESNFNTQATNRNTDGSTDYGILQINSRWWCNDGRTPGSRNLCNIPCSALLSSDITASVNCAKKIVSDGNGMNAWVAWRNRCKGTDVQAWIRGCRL
T3 sequence (P08637 17-254): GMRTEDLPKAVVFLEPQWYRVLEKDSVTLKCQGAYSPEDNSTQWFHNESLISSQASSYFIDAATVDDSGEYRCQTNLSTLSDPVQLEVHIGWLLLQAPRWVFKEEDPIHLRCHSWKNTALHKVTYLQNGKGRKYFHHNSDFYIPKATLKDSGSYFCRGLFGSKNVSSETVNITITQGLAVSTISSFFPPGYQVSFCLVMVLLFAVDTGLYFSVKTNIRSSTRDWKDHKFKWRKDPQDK
T1 sequence (P61769 21-119): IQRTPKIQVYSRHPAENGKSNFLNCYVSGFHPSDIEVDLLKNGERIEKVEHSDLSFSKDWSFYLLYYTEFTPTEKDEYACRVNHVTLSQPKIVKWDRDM

B1: Nb24, SpyTagged nanobody (mammalian expression) (VHH)
VHH: QVQLQESGGGSVQAGGSLRLSCAASGYTDSRYCMAWFRQAPGKEREWVARINSGRDITYYADSVKGRFTFSQDNAKNTVYLQMDSLEPEDTATYYCATDIPLRCRDIVAKGGDGFRYWGQGTQVTVSS
notes: nanobody Nb24; (G3S)2 linker between the nanobody and SpyTag003; Covalently captured on biotinylated SpyCatcher003 S49C on streptavidin sensors; also called anti-β2-microglobulin nanobody Nb24; Nb24-SpyTag003; source: Expi293F, transfected (pcDNA3.4); purified (His Mag Sepharose Excel, SEC) or used directly as crude mammalian cell supernatant; not shown: SpyTag003 (after a (G3S)2 linker), …
- Kd (β2-microglobulin [1]): 50 nM
- koff (β2-microglobulin [1]): 0.0114 s⁻¹
- kon (β2-microglobulin [1]): 240000 M⁻¹ s⁻¹
- Kd (β2-microglobulin [2]): 49.6 nM
- koff (β2-microglobulin [2]): 0.0112 s⁻¹
- kon (β2-microglobulin [2]): 230000 M⁻¹ s⁻¹

B2: Nb24, SpyTagged nanobody (cell-free expression) (VHH)
VHH: B1 VHH
notes: nanobody Nb24; as the VHH of m1; The cell-free fragment design has an optional His-tag; also called Nb24-SpyTag003; not shown: SpyTag003 (after a (G3S)2 linker), C-terminal, kept
- Kd (β2-microglobulin [3]): 63.8 nM
- koff (β2-microglobulin [3]): 0.014 s⁻¹
- kon (β2-microglobulin [3]): 220000 M⁻¹ s⁻¹

B3: cAb-Lys3, SpyTagged nanobody (VHH)
VHH: DVQLQASGGGSVQAGGSLRLSCAASGYTIGPYCMGWFRQAPGKEREGVAAINMGGGITYYADSVKGRFTISQDNAKNTVYLLMNSLEPEDTAIYYCAADSTIYASYYECGHGLSTGGYGYDSWGQGTQVTVSS
notes: nanobody cAb-Lys3; The cell-free fragment design has an optional His-tag; also called Nb cAb-Lys3; not shown: SpyTag003 (after a (G3S)2 linker), C-terminal, kept
- Kd (hen egg-white lysozyme): 0.67 nM
- koff (hen egg-white lysozyme): 0.00116 s⁻¹
- kon (hen egg-white lysozyme): 1.7e+06 M⁻¹ s⁻¹

B4: anti-CD16a scFv, SpyTagged (mammalian expression) (scFv, V domains shown)
VH: EVQLVQSGAEVKKPGESLKVSCKASGYTFTSYYMHWVRQAPGQGLEWMGAIEPMYGSTSYAQKFQGRVTMTRDTSTSTVYMELSSLRSEDTAVYYCARGSAYYYDFADYWGQGTLVTVSS
VL: SYVLTQPSSVSVAPGQTATISCGGHNIGSKNVHWYQQRPGQSPVLVIYQDNKRPSGIPERFSGSNSGNTATLTISGTQAMDEADYYCQVWDNYSVLFGGGTKLTVL
notes: scFv of the FcγRIIIa-targeting arm of RO7297089; (G3S)2 linker between the scFv and SpyTag003; also called FcγRIIIa-targeting arm of the bispecific antibody RO7297089; source: Expi293F, transfected (pcDNA3.4); purified (His Mag Sepharose Excel, SEC) or used directly as crude mammalian cell supernatant; not shown: SpyTag003 (after a (G3S)2 linker), C-terminal, kept
- Kd (CD16a-mMBP [4]): 4.3 nM
- koff (CD16a-mMBP [4]): 0.00081 s⁻¹
- kon (CD16a-mMBP [4]): 187000 M⁻¹ s⁻¹
- Kd (CD16a-mMBP [5]): 6.7 nM
- koff (CD16a-mMBP [5]): 0.00113 s⁻¹
- kon (CD16a-mMBP [5]): 171000 M⁻¹ s⁻¹

B5: anti-CD16a scFv, SpyTagged (cell-free expression) (scFv, V domains shown)
VH: B4 VH
VL: B4 VL
notes: as the scFv of m3; The cell-free fragment design has an optional His-tag; not shown: SpyTag003 (after a (G3S)2 linker), C-terminal, kept
- Kd (CD16a-mMBP [6]): 8.1 nM
- koff (CD16a-mMBP [6]): 0.0018 s⁻¹
- kon (CD16a-mMBP [6]): 220000 M⁻¹ s⁻¹
